Data reported in doi:10.1101/2019.12.19.882696.

Target: Cys-OmpX labelled with Alexa Fluor 488 (E. coli) (UniProt P0A917)
Assay: MST

E. coli SurA wild type (mature, tag cleaved) (from UniProt P0ABZ6 21-428) (natural protein)
Kd: 800 nM
